Assay results published in publication PMC9672952.

Key:
[1] = target: Fusion of EfmRseP (1–200) and LpRseP (201–425) (Enterococcus faecium P21 | Lactiplantibacillus plantarum WCFS1) (UniProt I3U2R6)
[2] = target: EfmRseP with substitution H18A (Enterococcus faecium P21) (UniProt I3U2R6)
[3] = target: Truncation of EfmRseP (1–39, 139–422) Δ40–138 (Enterococcus faecium P21) (UniProt I3U2R6)
[4] = target: EfmRseP with substitution N359A (Enterococcus faecium P21) (UniProt I3U2R6)
[5] = target: Fusion of LpRseP (1–171, 222–425) and EfmRseP (172–221) (Lactiplantibacillus plantarum WCFS1 | Enterococcus faecium P21) (UniProt I3U2R6)
[6] = target: RseP from Enterococcus faecium P21, C-terminal 6× His-tag (Enterococcus faecium P21) (UniProt I3U2R6)
[7] = target: EfmRseP with substitution D372A (Enterococcus faecium P21) (UniProt I3U2R6)
[8] = target: Fusion of LpRseP (1–221) and EfmRseP (222–422) (Lactiplantibacillus plantarum WCFS1 | Enterococcus faecium P21) (UniProt I3U2R6)
[9] = target: EfmRseP with substitution H22A (Enterococcus faecium P21) (UniProt I3U2R6)
[10] = target: Fusion of EfmRseP (1–221) and LpRseP (222–425) (Enterococcus faecium P21 | Lactiplantibacillus plantarum WCFS1) (UniProt I3U2R6)
[11] = target: Fusion of LpRseP (1–201, 222–425) and EfmRseP (202–221) (Lactiplantibacillus plantarum WCFS1 | Enterococcus faecium P21) (UniProt I3U2R6)
[12] = target: Fusion of EfmRseP (1–32) and LpRseP (33–425) (Enterococcus faecium P21 | Lactiplantibacillus plantarum WCFS1) (UniProt I3U2R6)
[13] = target: EfmRseP with the triple alanine substitution of the HExxH motif (Enterococcus faecium P21) (UniProt I3U2R6)
[14] = target: Fusion of LpRseP (1–171, 326–425) and EfmRseP (172–325) (Lactiplantibacillus plantarum WCFS1 | Enterococcus faecium P21) (UniProt I3U2R6)
[15] = target: Fusion of EfmRseP (1–325) and LpRseP (326–425) (Enterococcus faecium P21 | Lactiplantibacillus plantarum WCFS1) (UniProt I3U2R6)
[16] = target: EfmRseP with substitution E19A (Enterococcus faecium P21) (UniProt I3U2R6)
[17] = target: EfmRseP with substitution N364A (Enterococcus faecium P21) (UniProt I3U2R6)
[18] = target: Fusion of LpRseP (1–201, 328–425) and EfmRseP (202–327) (Lactiplantibacillus plantarum WCFS1 | Enterococcus faecium P21) (UniProt I3U2R6)
[19] = target: EfmRseP with substitution P369A (Enterococcus faecium P21) (UniProt I3U2R6)
[20] = target: Fusion of LpRseP (1–328) and EfmRseP (329–422) (Lactiplantibacillus plantarum WCFS1 | Enterococcus faecium P21) (UniProt I3U2R6)
[21] = target: Fusion of EfmRseP (1–170) and LpRseP (171–425) (Enterococcus faecium P21 | Lactiplantibacillus plantarum WCFS1) (UniProt I3U2R6)
[22] = target: RseP from Lactiplantibacillus plantarum WCFS1, C-terminal 6× His-tag (Lactiplantibacillus plantarum WCFS1)
[23] = target: EfmRseP with substitution P367A (Enterococcus faecium P21) (UniProt I3U2R6)
[24] = target: RseP from Staphylococcus haemolyticus, without His-tag (Staphylococcus haemolyticus)
[25] = target: RseP from Staphylococcus aureus ATCC 14458, without His-tag (Staphylococcus aureus ATCC 14458)
[26] = target: RseP from Staphylococcus arlettae LMGT 4134, without His-tag (Staphylococcus arlettae LMGT 4134)
[27] = target: RseP from Lactococcus lactis IL1403, without His-tag (Lactococcus lactis IL1403)
[28] = target: RseP from Lactiplantibacillus plantarum WCFS1, without His-tag (Lactiplantibacillus plantarum WCFS1)
[29] = target: RseP from Enterococcus faecium P21, without His-tag (Enterococcus faecium P21) (UniProt I3U2R6)
[30] = target: RseP from Enterococcus faecalis V583, without His-tag (Enterococcus faecalis V583) (UniProt Q9RPP2)

Enterocin K1 (peptide)
MIC50 of EntK1 (growth inhibition, microtiter plate) towards L. plantarum expressing this RseP variant [1]: > 22 µM | MIC50 of EntK1 (growth inhibition, microtiter plate) towards L. plantarum expressing this RseP variant [2]: 0.02 µM | MIC50 of EntK1 (growth inhibition, microtiter plate) towards L. plantarum expressing this RseP variant [3]: 2.7 µM | MIC50 of EntK1 (growth inhibition, microtiter plate) towards L. plantarum expressing this RseP variant [4]: > 22 µM | MIC50 of EntK1 (growth inhibition, microtiter plate) towards L. plantarum expressing this RseP variant [5]: > 22 µM | MIC50 of EntK1 (growth inhibition, microtiter plate) towards L. plantarum expressing this RseP variant [6]: < 2 nM | MIC50 of EntK1 (growth inhibition, microtiter plate) towards L. plantarum expressing this RseP variant [7]: 0.7 µM | MIC50 of EntK1 (growth inhibition, microtiter plate) towards L. plantarum expressing this RseP variant [8]: > 22 µM | MIC50 of EntK1 (growth inhibition, microtiter plate) towards L. plantarum expressing this RseP variant [9]: 0.01 µM | MIC50 of EntK1 (growth inhibition, microtiter plate) towards L. plantarum expressing this RseP variant [10]: 0.7 µM | MIC50 of EntK1 (growth inhibition, microtiter plate) towards L. plantarum expressing this RseP variant [11]: > 22 µM | MIC50 of EntK1 (growth inhibition, microtiter plate) towards L. plantarum expressing this RseP variant; footnote: low expression may contribute [12]: > 22 µM | MIC50 of EntK1 (growth inhibition, microtiter plate) towards L. plantarum expressing this RseP variant [13]: 2.7 µM | MIC50 of EntK1 (growth inhibition, microtiter plate) towards L. plantarum expressing this RseP variant [14]: < 2 nM | MIC50 of EntK1 (growth inhibition, microtiter plate) towards L. plantarum expressing this RseP variant [15]: < 2 nM | MIC50 of EntK1 (growth inhibition, microtiter plate) towards L. plantarum expressing this RseP variant [16]: 0.01 µM | MIC50 of EntK1 (growth inhibition, microtiter plate) towards L. plantarum expressing this RseP variant [17]: 4 nM | MIC50 of EntK1 (growth inhibition, microtiter plate) towards L. plantarum expressing this RseP variant [18]: 0.09 µM | MIC50 of EntK1 (growth inhibition, microtiter plate) towards L. plantarum expressing this RseP variant [19]: < 0.02 µM | MIC50 of EntK1 (growth inhibition, microtiter plate) towards L. plantarum expressing this RseP variant [20]: > 22 µM | MIC50 of EntK1 (growth inhibition, microtiter plate) towards L. plantarum expressing this RseP variant [21]: > 22 µM | MIC50 of EntK1 (growth inhibition, microtiter plate) towards L. plantarum expressing this RseP variant [22]: > 22 µM | MIC50 of EntK1 (growth inhibition, microtiter plate) towards L. plantarum expressing this RseP variant [23]: 4 nM | MIC50 of EntK1 (growth inhibition, microtiter plate) towards L. plantarum expressing this RseP [24]: 0.17 µM | MIC50 of EntK1 (growth inhibition, microtiter plate) towards L. plantarum expressing this RseP; footnote: low expression may contribute [25]: > 22 µM | MIC50 of EntK1 (growth inhibition, microtiter plate) towards L. plantarum expressing this RseP; footnote: low expression may contribute [26]: > 22 µM | MIC50 of EntK1 (growth inhibition, microtiter plate) towards L. plantarum expressing this RseP [27]: 0.09 µM | MIC50 of EntK1 (growth inhibition, microtiter plate) towards L. plantarum expressing this RseP [28]: > 22 µM | MIC50 of EntK1 (growth inhibition, microtiter plate) towards L. plantarum expressing this RseP [29]: 0.01 µM | MIC50 of EntK1 (growth inhibition, microtiter plate) towards L. plantarum expressing this RseP [30]: 0.04 µM
